Data reported in publication PMC5154385 (ACS infectious diseases, 2015).

Tests used:
Eis_Mab2 = Eis_Mab2 (Mycobacteroides abscessus, UniProt B1MKV6); experiment: DTNB; assay type: biochemical
[1] = tested on: NC[C@@H]1O[C@H](O[C@H]2[C@@H](O)[C@H](O[C@@H]3[C@@H](O)[C@H](N)C[C@H](N)[C@H]3O[C@H]3O[C@H](CO)[C@@H](O)[C@H](O)[C@H]3N)O[C@@H]2CO)[C@H](N)[C@@H](O)[C@@H]1O; experiment: purified protein; details: co-substrate AcCoA fixed (printed 0.5 μM), pH 8.0, 25 °C
[2] = tested on: NC[C@H]1O[C@H](O[C@H]2[C@H](O)[C@@H](O[C@H]3O[C@H](CO)[C@@H](O)[C@H](N)[C@H]3O)[C@H](N)C[C@@H]2N)[C@H](O)[C@@H](O)[C@@H]1O; experiment: purified protein; details: co-substrate AcCoA fixed (printed 0.5 μM), pH 8.0, 25 °C

[H]/N=C(\N/C(=N/[H])NCCCCCCNC(=N)NC(=N)Nc1ccc(Cl)cc1)Nc1ccc(Cl)cc1 [chlorhexidine]
IC50 (Eis_Mab2): 4.4 ± 0.9 µM

Eis_Mab2 (Mycobacteroides abscessus ATCC 19977)
Km [1]: 144 ± 14 µM | kcat [1]: 2.83 ± 0.07 s⁻¹ | kcat/Km [1]: 19700 ± 1970 M⁻¹ s⁻¹ | Km [2]: 125 ± 27 µM | kcat [2]: 0.124 ± 0.007 s⁻¹ | kcat/Km [2]: 992 ± 377 M⁻¹ s⁻¹
